According to article PMC8420576 (The EMBO Journal, 2021):

Target: T1, SARS-CoV-2 Spike RBD (residues 334–527), C-terminal Avi-His6 tag, biotinylated (SARS-CoV-2, reference (Wuhan-Hu-1) …, UniProt P0DTC2, biotin on the Avi-tag)
T1 construct: also called biotinylated RBD; SARS‐CoV‐2 RBD‐loaded sensors
Experiment: BLI
Conditions: both partners purified

B1: VHH antibody Re9F06 (VHH)
VHH: QVQLVESGGGLVQAGGSLRLSCAASGRTFSNDALGWFRQAPRKEREFVAAINWNSGTYYADSVKGRFTISRDNAKNTVYLQMNSLKPEDTAVYSCAAASDYGLPREDFLYDYWGQGTQVTVSS
notes: also called fold-promoter Re9F06; fold-promoting nanobody Re9F06
**Q.** For B1, which Kd is on record?
**A.** Its Kd is 4 nM.
